Reference: the DeepSol protein solubility set

test: soluble on expression in E. coli; label from the status in PepcDB or PDB records

Row | Sequence | soluble on expression in E. coli
1 | MSYNGSYHQNHHSTLQVKSKFDSEWRRFSIPMHSASGVSYDGFRSLVEKLHHLESVQFTLCYNSTGGDLLPITNDDNLRKSFESARPLLRLLIQRRGESWEEKYGYGTDSDKRWKGISSLMAQKPPKRSYSISNPEDFRQVSAIIDVDIVPEAHRRVRLCKHGQERPLGFYIRDGTSVRVTERGVVKVSGIFISRLVDGGLAESTGLLGVNDEVLEVNGIEVLGKTLDQVTDMMVANAHNLIITVKPANQRNTLSRGPSQQGTPNASEMSAATAAATGGIQRPMKMNGSSDGSYHPKQHDANDSDSGED | not soluble
2 | SSKSLKKLVEESREKNQPEVDMSDRGISNMLDVNGLFTLSHITQLVLSHNKLTMVPPNIAELKNLEVLNFFNNQIEELPTQISSLQKLKHLNLGMNRLNTLPRGFGSLPALEVLDLTYNNLSENSLPGNFFYLTTLRALYLSDNDFEILPPDIGKLTKLQILSLRDNDLISLPKEIGELTQLKELHIQGNRLTVLPPELGNLDLTGQKQVFKAENNPWVTPIADQFQLGVSHVFEYIRSETYKYLYGRHMQANPEPPKKNNDKSKKISRKPLAAKNR | soluble
3 | MSLQESLQDRLAQVVELLHRHKVVEDLTHRQEGQHHDRVENLVHRQNLVELQRKLEELHPADIAHILESLPLDDRLTVWQLVKSEDDGDILLEVSDAVRETLIADMDDHEIIAATKDLDADELADLAPELPRDVVHELMESLDAQQRERVRSALSYEEDQVGALMDFEMVTIREDVSLEVVLRYLRRLKELPGHTDKLFVVDYDGVLKGVLPIKRLLVNDPDKQVLEVMATDPVTFHPDEDGYDAAQAFERYDLISAPVVDKGGKLIGRLTIDEMVDLIREESESEVLNMAGLREEEDIFASVWEGHHHHHH | soluble
4 | MGSDKIHHHHHHMKPIDLDKLDLLTLSILVSLYENKSATHVSRILDVPASKISRCLHTARLIFGDELFIRRKYGLVPNDYAGKIYPIAKEIVECAKHFNRLNSAEQSHNRYFELVIPGMIAYAYPRALMKAIKEHNKNIHINVSSWSSHSLESVTSDPHCIVMCCCKGPEEILCFDQKLQVEVLATMNRQYLLSCRKHPILKQDISLETIAKYPYINTFIGTQAPILNPFQEYCQAKDLSLNTEMTITSVSSLFDYLSDCQSLAITPYKAVYDMLDDDSGLHACQLSEYECNRLFEVVEPLKLVLVTHPSADNEDTAWLKQQIRELTHELI | not soluble
5 | MKVIAVNGGPRKQWNTATLLHKALEGAQSAGAETDLFHLYDLNYKGCISCFGCKRKNSSRIGHCVLKDELTPLLEEVLKCDALLLGSPIYFGNVTGAMRSFLERLFFSLLSYNEGQRTVFPRKVASGFIYTMNVPEDFLPQLEHHHHHH | soluble
6 | MFGFSNSDISVSSGHTSHLDEVLPQSMYMVDADGRMVRWSPWFRDRIAGFSDAEMASTDFLELIHPEDRALVRQRMRKILDQGVQDSLEVRIFLKGGPAFRWFLLMANRYEYAGHYFITGTGIDIT | not soluble
7 | MVAQSKILLYYKFTPIADPKAMMLWQRDMCELLGLKGRILISEHGINGTVGGDMDACKRYVRKMREYPGFRGTEFKWSDGGAEDFPKLSVKVRDEIVAFGAPGELKVDEKGVIGGGVHLKPEEVNKLVEERGDDVVFFDGRNAMEAQIGKFKNAVVPDVRTTHDFIRELESGKYDWMKDKPVVSYCTGGIRCEILSSLMKNRGFKEIYQIDGGIVRYGEKYGNDGLWEGSLYVFDRRMHMEFGNGVQDPGFIQLGHCVQCGAPTNKFEHCINEDECRELVLMCPDCYENPATRNCGREHCKEVAAEAAAAAAVLEHHHHHH | soluble
8 | TMLSFVTTDANIDHGHLQGALSAITNETFNRITVDGDTSTNDMVVVMASGLAENETLTPEHPDWANFYKALQLACEDLAKQIARDGEGATKLIEVEVTGAANDQEAGMVAKQIVGSDLVKTAIYGADANWGRIICAIGYSGCEVNQETIDIAIGPIVTLKQSEPTGFSEEEATAYLKEADPVKISVNLHIGNGTGKAWGCDLTYDYVRINAGYRT | soluble
9 | MGHHHHHHSHAESIKNQMTVKEWEKVFEMSQDKNLYHNLCTSLFPTIHGNDEVKRGVLLMLFGGVPKTTGEGTSLRGDINVCIVGDPSTAKSQFLKHVEEFSPRAVYTSGKASSAAGLTAAVVRDEESHEFVIEAGALMLADNGVCCIDEFDKMDVRDQVAIHEAMEQQTISITKAGVKATLNARTSILAAANPISGHYDRSKSLKQNINLSAPIMSRFDLFFILVDECNEVTDYAIARRIVDLHSRIEESIDRVYSLDDIRRYLLFARQFKPKISKESEDFIVEQYKHLRQRDGSGVTKSSWRITVRQLESMIRLSEAMARMHCCDEVQPKHVKEAFRLLNKSIIRVETPDVNLDQEEE | not soluble
10 | MKDTLMSIQIIPKTPNNDNVIPYVDEAIKIIDESGMHFRVGPLETTVQGNMNECLILIQSLNERMVELECPSIISQVKFYHVPDGITIETLTEKYDELEHHHHHH | soluble
11 | AHHHHHHGSIKLRDELGTATTDSAQKILLLGSGELGKEIAIEAQRLGVEVVAVDRYANAPAMQVAHRSYVGNMMDKDFLWSVVEREKPDAIIPEIEAINLDALFEFEKEGYFVVPNAKATWIAMHRERLRETLVKEAKVPTSRYMYATTLDELYEACEKIGYPCHTKAIMSSSGKGSYFVRGPEDIPKAWEEAKTKARGSAEKIIVEEHIDFDVEITELAVRHFDENGEIVTTFPKPVGHYQIDGDYHASWQPAEISEKAEREVYRIAKRITDVLGGLGLFGVEMFVKGDKVWANEVSPRPHDTGMVTLASHPPGFSEFGLHLRAVLGLPIPGEWVDGYRLFPMLIPAATHVIKAKVSGYSPRFRGLAKALSVPNATIRLFGKPEAYPGRRLGVVLAWDKDVQEAKKRAEMVAHMIELRTRSSDWHSQDYEKRKHLL | soluble
12 | SMKYKLNVLLAEIALIGTGNHYHEEANCIAEWLHLKGEEEAVQLIRLSSLMNRGDYASALQQGNKLAYPDLEPWLALCEYRLGLGSALESRLNRLARSQDPRIQTFVNGMREQLKT | soluble
13 | STPELLSGHIPPGHIPKPIVMPDYVAKYPVIQTDDDRERYKAVFQDQFSEYKELSAEVQAILRKFDELDTVMSRLPHHSENRQEHERISRIHEEFRKKKNDPSFLEKKERCDYLKNKLSHIKQRIQEYDKVMNWDTQGYP | soluble
14 | MSYQSLLTHRCDIYHLQEKKENRKQKFGVPVEDVQPVFSYPDEPDIENQPCYFTEKSQSIIQQESNVSIYQSFLVHFPATADIRVNDRAVWDGTAYKLQKPRKIRNHHWEVTAVREVEYLLEHHHHHH | soluble
15 | MPVLSIISCRMFEDELAHIISSDKEMKQLIVVENKDSFGLLRKLRSDNCLPRTSPLDRVPFLLGNGHGSGFMTISKPLLILPFFRKIHEKMKIKAAQELTVVVNLLKLGLHDDIEILRSEVYKNIKEMTSFSDGILLFYCSCGGAFENLEENCLEFDCPLYWFKDGNEEVVVDCISAAIGGNAAYDELMYTCRGTGALYFTSMWASSWKEMREERKKSRNFNENYLKDPRYSRVVKLDTGLSYDPDFHKNVRDFARTFDMEIIEVKGSVELAEKSYRTAKKGVVQHTLKLEHHHHHH | not soluble
16 | MGSDKIHHHHHHMGLPMWANGDWRGSLYARHAPSSGMLHDYGAVFGSVEGNTTFYSGPPKADTVAQWARQAPADFRFCFKLPAQLTHDKRLVGIEDDFRTFCDALAPLHDRLGPTMVQLPRDFGARELPALAAFLEKWPSDMPCAVEVRHSEFFHKGDAEQQLNRLLITLGVDRVMLDVRPLFATPAGDDARLIKAQSEKPKRPLHVISTGRMPIVRFIGHCDMEINERLFAPWCERLALWIKQGKTPFLFVHTPDNRQAPQLARRFHARLSRCVTLPPLGDFPGERQSALF | not soluble
17 | MLSGVGAPVGKQMLAGTEVAAMQINKAGGLLGREVELVIRDDKYNSSESVAVARELAGDGINLLLGGSQTVTALGLAPLAPELNMAVMIVAAAGMPVTHELFNPNIFRATANNYTQYSSLGRVLIEQNPDVRTWVSLAPDGDFGRDSALFFGKAVEKYAPGEKPTVLDTIYTQATATDFRTQINQLMSSDAEGLYIGIAASAQISFFQQARSVGLYDKFKAIGEVGNGDITGKAMGRNTHPNLWSVCHWIYNAEPFASNPVSKQLYEDYVTLKGDEMPSAQVAAGHRAAMAIFEGIRAAGSTETEAVLAAIEDVEFETVGGPVSFRKEDHQLVNTNYYSQMGPSREEPFFAFNKVVSIDAAEMIEPATPGKAFDISELPQLEHHHHHH | not soluble
18 | GHMLWARLVGLARLEARALSKKERRSLLERLKPYYTRIPFSEKADLRLVKARTDSGEYEIITVDGVPCLFEWSDGRIYPTLQCLKAFGVDWLKGVVLVDKGAAIALAKGAHLMIPGVVGVEGSFTRGDVVAALYHETRTPVMVGVAEVDSSALEKLYREKARGRAVRRVHRLGDALWELAQEVGKRLSGS | soluble
19 | MGSDKIHHHHHHMDDGTRLGQADHAAGPRPPGVIFTMRYPSDVGFVWKTIALHRDLIARAFGGEARCILAYPQLSPTSAYQPRWSTAIQADFYDYSAENRQRLERVITDEAIRLVVFMSAQPADVDLGFLRGLGLRTVTSENNSYDHSLRQPFMKRLAKALIRRVLKRQVFDLHIANSQAQYDFLRGFAQLPASRLRAVRNGVDTDHFQPGERTGACSTLGLDPDRLWIMAASQARPEKRLERVLEVIRAVKDARPALPIGFFFVGEGENLAEWRQIALGLPDAETYRFFGRQNDLRPYYQAASVFIHGAFRESFGLVIAEAMASGLPVVATHAHGPAEIIAEGETGRLVGRDDWEGLGKAVIEYLDDAELRRTHGLAGRARCVALFSITRQAQEFADLLRPFLKDGAGAPY | not soluble
20 | MGSDKIHHHHHHMIYNYGFLDENTKKEIRRKILKAISIPGYQVPFGSRELPIAKGWGTGGLQLTLSLIGKNDVVKVIDQGSDDSTNACNIRSFIASVSNVETTKDTLEATLIQTRHRIPEEKLKSNQILIFQVPIPETLRIVEPSEVETRRMHSEEDYSRMWVYLYEDIVRFNDISIAVEYPCKVNDRYLMNPSPIPRFDIKKLNMSDNLFLFGAGREKRIYAIPPYTKVEPLEFEDYKFEEEKFEGKYCSLCNSTNTFLDEVYDSDTNEKYYSCSDTSYCEKVRLKNNSIDVTIGGTWNE | not soluble
21 | MSGTKASVFSTILQLMNSLAIRAVADNVRRLLEARRLSQKELAALSGVSQKSINDLLNYGGTVSKEPRLGTIEKLAKGFGIATWQLQIPGLPVDLLQGQMVSKVIENFRDAGTVGRENISRVAESEVRYSLVQNSERGAPR | not soluble
22 | MAYSKIRQPKLSDVIEQQLEFLILEGTLRPGEKLPPERELAKQFDVSRPSLREAIQRLEAKGLLLRRQGGGTFVQSSLWQSFSDPLVELLSDHPESQYDLLETRHALEGIAAYYAALRSTDEDKERIRELHHAIELAQQSGDLDAESNAVLQYQIAVTEAAHNVVLLHLLRCMEPMLAQNVRQNFELLYSRREMLPLVSSHRTRIFEAIMAGKPEEAREASHRHLAFIEEILLDRSREESRRERSLRRLEQRKN | soluble
23 | MEEELASYKLQLQQVEAALLGDPTNVELLKLKEDLGEIISLQEDLAETDKAESSERAVVAPQVIHKWTVGERVIAPHPDGKKVFARIDSLTPAGVAITFTSTGTKTIVDPADLQLPPENQRKNYAFDNTKSAAGPSTQHGKKEWQAEKERRRQKALKKQQKQKELDSIKDGEKKSWQKFNTKANAKGLKGLKKVSATGSSQDGSASSSGGGGEKRGTIVSSRSSQFIFKATRGAMDSLF | not soluble
24 | SETQSFVVSVAGSDRVGIVHDFSWALKNISANVESSRMACLGGDFAMIVLVSLNAKDGKLIQSALESALPGFQISTRRASSVAERHVSPDTREYELYVEGPDSEGIVEAVTAVLAKKGANIVELETETLPAPFAGFTLFRMGSRVAFPFPLYQEVVTALSRVEEEFGVDIDLEEVVEGEDSEEDDDSPNSPVGRH | soluble
25 | MCIHTIPYYSAKRRRIMDNQFFKNIEKKTGVKMQDVMNLAGSLQNANFKDENTVRSVINRVAQMANRRVPKELEDKIVESITSGKEKLDFGTISKMMDNKLEHHHHHH | not soluble
